This assay addresses T1, FcγRI (UniProt P12314 16-288, limits assumed).
T1 construct: construct not described; also called CD64; FcγRIa
Briefly: BLI (Fortebio Octet), FcγRI immobilized on HIS1K sensor, antibody 3.12-50 nM, 1:1 fit. As for the experimental part: 1 μg/mL FcγRIa was immobilized on the HIS1K sensor for 50 s. The sensor was equilibrated in a buffer for 60 s, and the binding of the immobilized CD64 on the sensor to the antibodies at concentrations of 3.12-50 nM (two-fold dilution) was determined for 120 s. The antibody was dissociated in the buffer for 120 s. The sensor was refreshed 4 times in 10 mM glycine pH 1.5, each for 5 s. The detection temperature was 30° C. and the frequency was 0.3 Hz. The data were analyzed by 1:1 model fitting to obtain affinity constants.

Consider 1 molecule from US20250114450A1 (AKESO BIOPHARMA, published 2025).

T1 sequence (P12314 16-288 limits assumed): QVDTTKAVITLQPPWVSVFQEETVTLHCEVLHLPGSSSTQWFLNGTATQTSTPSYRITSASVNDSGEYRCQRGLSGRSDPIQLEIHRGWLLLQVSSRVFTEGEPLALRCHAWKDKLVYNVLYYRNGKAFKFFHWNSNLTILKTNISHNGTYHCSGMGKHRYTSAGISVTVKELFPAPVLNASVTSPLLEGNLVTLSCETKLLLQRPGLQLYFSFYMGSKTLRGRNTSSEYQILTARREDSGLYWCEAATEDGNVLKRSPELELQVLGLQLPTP

B1: Bevacizumab (antibody, human IgG1, kappa)
heavy: not shown
light: not shown
notes: also called Avastin; anti-VEGFA monoclonal antibody
On to B1, for which the Kd (commonly a measure of binding affinity in units of concentration) was determined as 3.68 nM.
